Measured values as given in patent US20210388110A1 (published 2021).

B1: GCH025-G1dh/none-Hi-Kn010G3/L0204-k0 (antibody, human IgG1, kappa)
heavy: not shown
chain: EPKSSDKTHTCPPCPAPELLGGPSVFLFPPKPKDTLMISRTPEVTCVVVDVSHEDPEVKFNWYVDGVEVHNAKTKPREEQYNSTYRVVSVLTVLHQDWLNGKEYKCKVSNKALPAPIEKTISKAKGQPREPQVCTLPPSRDELTKNQVSLWCLVKGFYPSDIAVEWESNGQPENNYKTTPPVLDSDGSFFLYSKLTVDKSRWQQGNVFSCSVMHEALHNRYTQKSLSLSP
light: DIVMTQSPLSLPVTPGEPASISCRSSQSPVHSNRNTYLHWYQQKPGQAPRLLIYKVSNRFRGVPDRFSGSGSGTDFTLKISRVEAEDVGVYYCGQGTQVPYTFGQGTKLEIKRTVAAPSVFIFPPSDEQLKSGTASVVCLLNNFYPREAKVQWKVDNALQSGNSQESVTEQDSKDSTYSLSSTLTLSKADYEKHKVYACEVTHQGLSSPVTKSFNRGEC
notes: single-arm (one Fab)
B2: GCH027-G1dh/none-Hi-Kn010G3/L0000-k0 (antibody, human IgG1, kappa)
heavy: not shown
chain: EPKSSDKTHTCPPCPAPELLGGPSVFLFPPKPKDTLMISRTPEVTCVVVDVSHEDPEVKFNWYVDGVEVHNAKTKPREEQYNSTYRVVSVLTVLHQDWLNGKEYKCKVSNKALPAPIEKTISKAKGQPREPQVCTLPPSRDELTKNQVSLWCLVKGFYPSDIAVEWESNGQPENNYKTTPPVLDSDGSFFLYSKLTVDKSRWQQGNVFSCSVMHEALHNRYTQKSLSLSP
light: DIVMTQSPLSLPVTPGEPASISCRSSQSLVHSNRNTYLHWYQQKPGQAPRLLIYKVSNRFSGVPDRFSGSGSGTDFTLKISRVEAEDVGVYYCGQGTQVPYTFGQGTKLEIKRTVAAPSVFIFPPSDEQLKSGTASVVCLLNNFYPREAKVQWKVDNALQSGNSQESVTEQDSKDSTYSLSSTLTLSKADYEKHKVYACEVTHQGLSSPVTKSFNRGEC
notes: single-arm (one Fab)
B3: GCH029-G1dh/none-Hi-Kn010G3/L0000-k0 (antibody, human IgG1, kappa)
heavy: not shown
chain: EPKSSDKTHTCPPCPAPELLGGPSVFLFPPKPKDTLMISRTPEVTCVVVDVSHEDPEVKFNWYVDGVEVHNAKTKPREEQYNSTYRVVSVLTVLHQDWLNGKEYKCKVSNKALPAPIEKTISKAKGQPREPQVCTLPPSRDELTKNQVSLWCLVKGFYPSDIAVEWESNGQPENNYKTTPPVLDSDGSFFLYSKLTVDKSRWQQGNVFSCSVMHEALHNRYTQKSLSLSP
light: DIVMTQSPLSLPVTPGEPASISCRSSQSLVHSNRNTYLHWYQQKPGQAPRLLIYKVSNRFSGVPDRFSGSGSGTDFTLKISRVEAEDVGVYYCGQGTQVPYTFGQGTKLEIKRTVAAPSVFIFPPSDEQLKSGTASVVCLLNNFYPREAKVQWKVDNALQSGNSQESVTEQDSKDSTYSLSSTLTLSKADYEKHKVYACEVTHQGLSSPVTKSFNRGEC
notes: single-arm (one Fab)
B4: GCH040-G1dh/none-Hi-Kn010G3/L0000-k0 (antibody, human IgG1, kappa)
heavy: not shown
chain: EPKSSDKTHTCPPCPAPELLGGPSVFLFPPKPKDTLMISRTPEVTCVVVDVSHEDPEVKFNWYVDGVEVHNAKTKPREEQYNSTYRVVSVLTVLHQDWLNGKEYKCKVSNKALPAPIEKTISKAKGQPREPQVCTLPPSRDELTKNQVSLWCLVKGFYPSDIAVEWESNGQPENNYKTTPPVLDSDGSFFLYSKLTVDKSRWQQGNVFSCSVMHEALHNRYTQKSLSLSP
light: DIVMTQSPLSLPVTPGEPASISCRSSQSLVHSNRNTYLHWYQQKPGQAPRLLIYKVSNRFSGVPDRFSGSGSGTDFTLKISRVEAEDVGVYYCGQGTQVPYTFGQGTKLEIKRTVAAPSVFIFPPSDEQLKSGTASVVCLLNNFYPREAKVQWKVDNALQSGNSQESVTEQDSKDSTYSLSSTLTLSKADYEKHKVYACEVTHQGLSSPVTKSFNRGEC
notes: single-arm (one Fab)
B5: GCH043-G1dh/none-Hi-Kn010G3/L0000-k0 (antibody, human IgG1, kappa)
heavy: not shown
chain: EPKSSDKTHTCPPCPAPELLGGPSVFLFPPKPKDTLMISRTPEVTCVVVDVSHEDPEVKFNWYVDGVEVHNAKTKPREEQYNSTYRVVSVLTVLHQDWLNGKEYKCKVSNKALPAPIEKTISKAKGQPREPQVCTLPPSRDELTKNQVSLWCLVKGFYPSDIAVEWESNGQPENNYKTTPPVLDSDGSFFLYSKLTVDKSRWQQGNVFSCSVMHEALHNRYTQKSLSLSP
light: DIVMTQSPLSLPVTPGEPASISCRSSQSLVHSNRNTYLHWYQQKPGQAPRLLIYKVSNRFSGVPDRFSGSGSGTDFTLKISRVEAEDVGVYYCGQGTQVPYTFGQGTKLEIKRTVAAPSVFIFPPSDEQLKSGTASVVCLLNNFYPREAKVQWKVDNALQSGNSQESVTEQDSKDSTYSLSSTLTLSKADYEKHKVYACEVTHQGLSSPVTKSFNRGEC
notes: single-arm (one Fab)
B6: GCH042-G1dh/none-Hi-Kn010G3/L0000-k0 (antibody, human IgG1, kappa)
heavy: not shown
chain: EPKSSDKTHTCPPCPAPELLGGPSVFLFPPKPKDTLMISRTPEVTCVVVDVSHEDPEVKFNWYVDGVEVHNAKTKPREEQYNSTYRVVSVLTVLHQDWLNGKEYKCKVSNKALPAPIEKTISKAKGQPREPQVCTLPPSRDELTKNQVSLWCLVKGFYPSDIAVEWESNGQPENNYKTTPPVLDSDGSFFLYSKLTVDKSRWQQGNVFSCSVMHEALHNRYTQKSLSLSP
light: DIVMTQSPLSLPVTPGEPASISCRSSQSLVHSNRNTYLHWYQQKPGQAPRLLIYKVSNRFSGVPDRFSGSGSGTDFTLKISRVEAEDVGVYYCGQGTQVPYTFGQGTKLEIKRTVAAPSVFIFPPSDEQLKSGTASVVCLLNNFYPREAKVQWKVDNALQSGNSQESVTEQDSKDSTYSLSSTLTLSKADYEKHKVYACEVTHQGLSSPVTKSFNRGEC
notes: single-arm (one Fab)
B7: GCH054-G1dh/none-Hi-Kn010G3/L0203-k0 (antibody, human IgG1, kappa)
heavy: not shown
chain: EPKSSDKTHTCPPCPAPELLGGPSVFLFPPKPKDTLMISRTPEVTCVVVDVSHEDPEVKFNWYVDGVEVHNAKTKPREEQYNSTYRVVSVLTVLHQDWLNGKEYKCKVSNKALPAPIEKTISKAKGQPREPQVCTLPPSRDELTKNQVSLWCLVKGFYPSDIAVEWESNGQPENNYKTTPPVLDSDGSFFLYSKLTVDKSRWQQGNVFSCSVMHEALHNRYTQKSLSLSP
light: DIVMTQSPLSLPVTPGEPASISCRSSQSPVHSNRNTYIHWYQQKPGQAPRLLIYKVSNRFSGVPDRFSGSGSGTDFTLKISRVEAEDVGVYYCGQGTQVPYTFGQGTKLEIKRTVAAPSVFIFPPSDEQLKSGTASVVCLLNNFYPREAKVQWKVDNALQSGNSQESVTEQDSKDSTYSLSSTLTLSKADYEKHKVYACEVTHQGLSSPVTKSFNRGEC
notes: single-arm (one Fab)
B8: GCH045-G1dh/none-Hi-Kn010G3/L0000-k0 (antibody, human IgG1, kappa)
heavy: not shown
chain: EPKSSDKTHTCPPCPAPELLGGPSVFLFPPKPKDTLMISRTPEVTCVVVDVSHEDPEVKFNWYVDGVEVHNAKTKPREEQYNSTYRVVSVLTVLHQDWLNGKEYKCKVSNKALPAPIEKTISKAKGQPREPQVCTLPPSRDELTKNQVSLWCLVKGFYPSDIAVEWESNGQPENNYKTTPPVLDSDGSFFLYSKLTVDKSRWQQGNVFSCSVMHEALHNRYTQKSLSLSP
light: DIVMTQSPLSLPVTPGEPASISCRSSQSLVHSNRNTYLHWYQQKPGQAPRLLIYKVSNRFSGVPDRFSGSGSGTDFTLKISRVEAEDVGVYYCGQGTQVPYTFGQGTKLEIKRTVAAPSVFIFPPSDEQLKSGTASVVCLLNNFYPREAKVQWKVDNALQSGNSQESVTEQDSKDSTYSLSSTLTLSKADYEKHKVYACEVTHQGLSSPVTKSFNRGEC
notes: single-arm (one Fab)
B9: GCH053-G1dh/none-Hi-Kn010G3/L0000-k0 (antibody, human IgG1, kappa)
heavy: not shown
chain: EPKSSDKTHTCPPCPAPELLGGPSVFLFPPKPKDTLMISRTPEVTCVVVDVSHEDPEVKFNWYVDGVEVHNAKTKPREEQYNSTYRVVSVLTVLHQDWLNGKEYKCKVSNKALPAPIEKTISKAKGQPREPQVCTLPPSRDELTKNQVSLWCLVKGFYPSDIAVEWESNGQPENNYKTTPPVLDSDGSFFLYSKLTVDKSRWQQGNVFSCSVMHEALHNRYTQKSLSLSP
light: DIVMTQSPLSLPVTPGEPASISCRSSQSLVHSNRNTYLHWYQQKPGQAPRLLIYKVSNRFSGVPDRFSGSGSGTDFTLKISRVEAEDVGVYYCGQGTQVPYTFGQGTKLEIKRTVAAPSVFIFPPSDEQLKSGTASVVCLLNNFYPREAKVQWKVDNALQSGNSQESVTEQDSKDSTYSLSSTLTLSKADYEKHKVYACEVTHQGLSSPVTKSFNRGEC
notes: single-arm (one Fab)
B10: GCH054-G1dh/none-Hi-Kn010G3/L0200-k0 (antibody, human IgG1, kappa)
heavy: not shown
chain: EPKSSDKTHTCPPCPAPELLGGPSVFLFPPKPKDTLMISRTPEVTCVVVDVSHEDPEVKFNWYVDGVEVHNAKTKPREEQYNSTYRVVSVLTVLHQDWLNGKEYKCKVSNKALPAPIEKTISKAKGQPREPQVCTLPPSRDELTKNQVSLWCLVKGFYPSDIAVEWESNGQPENNYKTTPPVLDSDGSFFLYSKLTVDKSRWQQGNVFSCSVMHEALHNRYTQKSLSLSP
light: DIVMTQSPLSLPVTPGEPASISCRPSQSPVHSNRNTYLHWYQQKPGQAPRLLIYKVSNRFSGVPDRFSGSGSGTDFTLKISRVEAEDVGVYYCGQGTQVPYTFGQGTKLEIKRTVAAPSVFIFPPSDEQLKSGTASVVCLLNNFYPREAKVQWKVDNALQSGNSQESVTEQDSKDSTYSLSSTLTLSKADYEKHKVYACEVTHQGLSSPVTKSFNRGEC
notes: single-arm (one Fab)
B11: GCH054-G1dh/none-Hi-Kn010G3/L0201-k0 (antibody, human IgG1, kappa)
heavy: not shown
chain: EPKSSDKTHTCPPCPAPELLGGPSVFLFPPKPKDTLMISRTPEVTCVVVDVSHEDPEVKFNWYVDGVEVHNAKTKPREEQYNSTYRVVSVLTVLHQDWLNGKEYKCKVSNKALPAPIEKTISKAKGQPREPQVCTLPPSRDELTKNQVSLWCLVKGFYPSDIAVEWESNGQPENNYKTTPPVLDSDGSFFLYSKLTVDKSRWQQGNVFSCSVMHEALHNRYTQKSLSLSP
light: DIVMTQSPLSLPVTPGEPASISCRSSQPPVHSNRNTYLHWYQQKPGQAPRLLIYKVSNRFSGVPDRFSGSGSGTDFTLKISRVEAEDVGVYYCGQGTQVPYTFGQGTKLEIKRTVAAPSVFIFPPSDEQLKSGTASVVCLLNNFYPREAKVQWKVDNALQSGNSQESVTEQDSKDSTYSLSSTLTLSKADYEKHKVYACEVTHQGLSSPVTKSFNRGEC
notes: single-arm (one Fab)
B12: GCH039-G1dh/none-Hi-Kn010G3/L0000-k0 (antibody, human IgG1, kappa)
heavy: not shown
chain: EPKSSDKTHTCPPCPAPELLGGPSVFLFPPKPKDTLMISRTPEVTCVVVDVSHEDPEVKFNWYVDGVEVHNAKTKPREEQYNSTYRVVSVLTVLHQDWLNGKEYKCKVSNKALPAPIEKTISKAKGQPREPQVCTLPPSRDELTKNQVSLWCLVKGFYPSDIAVEWESNGQPENNYKTTPPVLDSDGSFFLYSKLTVDKSRWQQGNVFSCSVMHEALHNRYTQKSLSLSP
light: DIVMTQSPLSLPVTPGEPASISCRSSQSLVHSNRNTYLHWYQQKPGQAPRLLIYKVSNRFSGVPDRFSGSGSGTDFTLKISRVEAEDVGVYYCGQGTQVPYTFGQGTKLEIKRTVAAPSVFIFPPSDEQLKSGTASVVCLLNNFYPREAKVQWKVDNALQSGNSQESVTEQDSKDSTYSLSSTLTLSKADYEKHKVYACEVTHQGLSSPVTKSFNRGEC
notes: single-arm (one Fab)
B13: GCH035-G1dh/none-Hi-Kn010G3/L0000-k0 (antibody, human IgG1, kappa)
heavy: not shown
chain: EPKSSDKTHTCPPCPAPELLGGPSVFLFPPKPKDTLMISRTPEVTCVVVDVSHEDPEVKFNWYVDGVEVHNAKTKPREEQYNSTYRVVSVLTVLHQDWLNGKEYKCKVSNKALPAPIEKTISKAKGQPREPQVCTLPPSRDELTKNQVSLWCLVKGFYPSDIAVEWESNGQPENNYKTTPPVLDSDGSFFLYSKLTVDKSRWQQGNVFSCSVMHEALHNRYTQKSLSLSP
light: DIVMTQSPLSLPVTPGEPASISCRSSQSLVHSNRNTYLHWYQQKPGQAPRLLIYKVSNRFSGVPDRFSGSGSGTDFTLKISRVEAEDVGVYYCGQGTQVPYTFGQGTKLEIKRTVAAPSVFIFPPSDEQLKSGTASVVCLLNNFYPREAKVQWKVDNALQSGNSQESVTEQDSKDSTYSLSSTLTLSKADYEKHKVYACEVTHQGLSSPVTKSFNRGEC
notes: single-arm (one Fab)

Target: T1, soluble human GPC3 (human, UniProt P51654 25-563, limits assumed)
T1 construct: soluble human GPC3 as analyte; also called glypican 3
T1 sequence (P51654 other isoform, or with tags, fused parts or gaps limits assumed, form in doubt): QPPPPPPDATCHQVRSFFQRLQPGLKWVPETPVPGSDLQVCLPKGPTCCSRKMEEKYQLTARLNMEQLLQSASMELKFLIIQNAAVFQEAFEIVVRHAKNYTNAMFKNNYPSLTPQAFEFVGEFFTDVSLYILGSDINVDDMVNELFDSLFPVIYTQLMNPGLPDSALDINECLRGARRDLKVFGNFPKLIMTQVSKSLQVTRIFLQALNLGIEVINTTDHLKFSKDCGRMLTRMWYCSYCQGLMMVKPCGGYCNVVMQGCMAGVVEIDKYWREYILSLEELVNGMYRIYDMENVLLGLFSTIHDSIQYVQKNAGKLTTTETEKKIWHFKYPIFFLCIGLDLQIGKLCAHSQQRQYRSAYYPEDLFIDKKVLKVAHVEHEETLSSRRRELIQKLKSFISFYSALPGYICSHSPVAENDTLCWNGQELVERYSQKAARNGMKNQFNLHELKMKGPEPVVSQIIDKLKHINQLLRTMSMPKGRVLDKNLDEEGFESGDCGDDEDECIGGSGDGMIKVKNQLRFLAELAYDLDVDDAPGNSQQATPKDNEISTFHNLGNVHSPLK
Assay: SPR (Biacore), soluble human GPC3

Binder	Kd [nM]
B1	0.67
B2	3.83
B3	5.01
B4	4.8
B5	3.74
B6	4.89
B7	2.48
B8	4.63
B9	4.05
B10	1.18
B11	1.08
B12	4.95
B13	4.94
